The values that follow come from the RNAGym collection of RNA variant scans (doi:10.7554/elife.80360).

B1: Hairpin Ribozyme (parent)
chain: GUCCUCUUUCACGUGCGCGUGAAAGAGAGAAGUGAACCAGAGAAACACACGUUGUGGUAUAUUACCUGGUA

In this data set the parent is B1. The experiment in a line: self-cleavage, relative activity (ratio to wild type); higher = more cleavage; co-transcriptional.
As to U33C U63C, the self-cleavage turned out to be 0.187.

On to G34A C50G, for which the self-cleavage is 0.481. The value for U33G A41G was 0.0864; that for A35G G54A was 0.477; that for G34U G40U was 0.7. Turning to A35C A49U, the self-cleavage amounted to 0.119. The value for A35C A36G was 0.683; that for A35C A36U was 0.606; that for G34U C46G was 0.397. For the variant G34U C46U, the self-cleavage is 0.102. The figure for G34C A35U is 1.61. Turning to A35G G68U, the self-cleavage came out at 0.208. As to G34A A41C, the self-cleavage is 0.826. As for G34C A44U, the self-cleavage is 0.119.

Consider G34C A44G, for which the self-cleavage worked out at 0.264. The figure for U33C A35C is 0.12; for U33C A35G it is 0.192. In the case of A35C U55C, the self-cleavage came to 0.0658.

Take A35G C38G: the self-cleavage was 0.129. The figure for A35G C38U is 0.371; for G34A U67A it is 0.194.

For A35C A61G, the self-cleavage is 0.234.

A35C A61C: the self-cleavage was determined as 0.151. For G34U G57U, the self-cleavage turned out to be 1.28.

For U33C C38A, the self-cleavage came to 0.087. The figure for U33C A45U is 0.15; for U33C A45C it is 0.124; for G34U U55C it is 1.36. The value for U33C A47C was 0.106. As to G34U U52A, the self-cleavage is 1.5. The figure for G34A C48G is 0.17. The value for G34A C48A was 0.122. The figure for U33C C66A is 0.0633; for U33G G34U it is 0.0449. Consider U33G A43C, for which the self-cleavage was 0.0935.

Consider U33G A43U, for which the self-cleavage is 0.0768. For G34C A61G, the self-cleavage came out at 0.636. G34A U70G: the self-cleavage was 0.979.

On to G34U G42U, for which the self-cleavage came to 1.17. The figure for A35G U60A is 1.11. The value for G34U A44U was 0.205; that for G34U A44G was 0.348.

For the variant U33C C65G, the self-cleavage came to 0.138. The figure for U33C C65A is 0.159. The figure for A35G U58G is 0.881; for G34A U62A it is 0.315. The value for G34U C50U was 0.913; that for G34U C50G was 1.12. On to G32U U62C, for which the self-cleavage came out at 0.0761.

As to A35G C65G, the self-cleavage was determined as 0.221. A35G C65U: the self-cleavage came to 0.227. The figure for G34U A49G is 1.49; for G34U A49C it is 0.433.

For the variant G34U A49U, the self-cleavage was 1. The value for G34C C46U was 0.109.

As to A35C U70G, the self-cleavage worked out at 0.676. Regarding A35C U70A, the self-cleavage was 0.805. For the variant A35C A64C, the self-cleavage came out at 0.211. The figure for A35C A64G is 0.513; for A35G A64U it is 0.129; for G34A G68U it is 0.325.

Turning to G34U C37G, the self-cleavage was 1.01. The value for G34A U52G was 1.09. The figure for G34C G54A is 1.2; for U33G A39U it is 0.0926. The figure for U33G A39G is 0.119; for U33G U70G it is 0.111; for G34U A45G it is 0.472.

In the case of G34C U60A, the self-cleavage was determined as 1.16. The figure for G34C U60G is 0.828. The figure for G34C U60C is 1.41; for G34A C37A it is 0.534.

Turning to G34C A71G, the self-cleavage is 1.66. The value for G34U A59C was 0.27; that for A35U A43C was 0.0178; that for G34A U63C was 0.0965. The figure for U33A U60C is 0.263; for U33A U60G it is 0.0384; for G34A G69C it is 0.402. The figure for G34A G69A is 0.568; for U33A U70C it is 0.119. On to U33A U70G, for which the self-cleavage was found to be 0.253. The figure for U33C U55G is 0.418. On to U33A A59C, for which the self-cleavage was 0.143. The value for U33A A59U was 0.177; that for U33A C66A was 0.0709; that for U33A C66U was 0.151.

As to G34C G68A, the self-cleavage stood at 0.723. The figure for A35G G56A is 0.108; for A35G G56U it is 0.154. For U33C G56U, the self-cleavage was found to be 0.26. The value for A35U A71C was 1.57; that for U33G A47C was 0.0542. The figure for U33G G56A is 0.221; for G34A G57A it is 0.207; for U33C A64G it is 0.0772. The value for U33C A64C was 0.102. Regarding G34A A61U, the self-cleavage was found to be 0.218. The figure for G34U U70G is 1.48; for A35C G40C it is 0.184.

As to U33A G69U, the self-cleavage was 0.134. U33A G69C: the self-cleavage stood at 0.124.

With U33A G69A, the self-cleavage worked out at 0.0983. The figure for G34C U52A is 1.66; for U33C A41G it is 0.193. The figure for U33G G42U is 0.153; for A35C C37G it is 0.282; for G34U A43G it is 0.125. The figure for G34C U62G is 0.175; for G34C U62A it is 0.471; for G34C U55A it is 1.16.

Take G34C U55G: the self-cleavage was found to be 1.19. The figure for A35C U52G is 0.728; for A35C U52C it is 1.05; for U33C G57A it is 0.242. The value for G34C C65A was 1.45; that for U33G U67G was 0.0324; that for A35G U55G was 0.283.

Take A35C A44C: the self-cleavage stood at 0.0528.

For the variant A35C A44U, the self-cleavage turned out to be 0.216. The value for U33A A41U was 0.111; that for U33A U55C was 0.149; that for U33A U67A was 0.0848. For the variant U33A A71U, the self-cleavage is 0.137. The value for U33A A71C was 0.389. The value for A35C A59C was 0.258; that for G34C G57U was 0.96; that for G34C G57A was 0.427. The value for U33G A35G was 0.126; that for G34U A61U was 1.13; that for U33C U67A was 0.119.

U33C U67C: the self-cleavage is 0.129. For G34U A64U, the self-cleavage came out at 0.883. The figure for G34A U53A is 1.46; for G34A U53C it is 1.13. The value for U33A C48A was 0.0899; that for U33C A36C was 0.199. The value for U33C A36U was 0.0847; that for U33C G40U was 0.121. On to U33C G40A, for which the self-cleavage was determined as 0.0908. The value for G34A A39U was 0.304; that for G34A A39C was 0.456; that for G34A A39G was 0.768. The figure for G34A G51A is 1.28; for G34A G51C it is 1.15. The value for G34A C38U was 0.655; that for A35C A39G was 0.591. For the variant A35C A39C, the self-cleavage worked out at 0.226. The figure for U33G C66U is 0.21; for A35G A49U it is 0.174; for A35U C37U it is 0.457.

As to A35U C37A, the self-cleavage is 0.406. The value for U33A G68U was 0.162; that for G34U G68A was 1.17; that for G34C C48U was 0.572. The figure for G34C C48A is 0.411. The value for U33G U58G was 0.155; that for G34A A44U was 0.113. Regarding A35C G57U, the self-cleavage turned out to be 0.318. A35C G57C: the self-cleavage is 0.134. The value for A35C A41U was 1.35; that for A35U A59C was 0.302.

Regarding A35U A64C, the self-cleavage was found to be 0.143. The figure for G34U A41C is 1.55; for G34U A41G it is 0.857. The figure for G34U G54C is 1.15.

As for G34U G54U, the self-cleavage is 1.26.
